Assay results as given in patent publication US8030017B2, “Thermostable luciferases and methods of production” (Promega Corporation, priority 1997, dated 2011).

How the values were obtained:
[1] = Michaelis-Menten constant for ATP of purified mutants; type: biochemical; settings: purified enzyme
From the text: (§1) Substrate binding was screened by measuring an apparent composite Km (see Example 2) for luciferin and ATP. […] The Km for luciferin rose while the Km for ATP declined (Table 3). The reason for this change is unknown, although it can be speculated that more efficient release of oxyluciferin or luciferin inhibitors could lead to more rapid enzyme turnover.
(§2) Protein purification: Four mutants that are described herein (Luc[T249M], Luc49-7C6, Luc78-0B10, and Luc90-1B5) were purified using a previously published procedure (Hastings et al., 1996).

[2] = Thermostability (half-life, retained activity) of luciferases incubated in aqueous solution at different temperatures; type: physicochemical; settings: purified enzyme
From the text: As defined herein, a “thermostable” enzyme, e.g., a luciferase, or an enzyme which has “thermostability”, is an enzyme which under certain conditions, e.g., at certain temperature, in aqueous solution and/or for certain periods of time, has an increased retention of activity relative to a reference enzyme. For example, for a thermostable luciferase, a reference luciferase may be native wild-type luciferase or recombinant wild-type luciferase. Preferably, for beetle luciferases, the activity is luminescence under conditions of saturation with luciferin and ATP. One measure of thermostability of an enzyme is the half-life of the enzyme in an aqueous solution (the time over which 50% of the activity is lost) at a stated temperature.
as §2
[…] Enzyme stability was determined from diluted proteins incubated at different temperatures, and aliquots were removed at different time points. A linear regression of the natural log of the luminescence and time was calculated. Half-life was calculated as the 1n(0.5)/slope of the regression.

[3] = test system: colonies of E. coli; test: In vivo luminescence of recombinant colonies of E. coli (visual screen); type: cell-based
From the text: Five to seven nitrocellulose disks having 200-500 colonies per disk (1000-3500 colonies total) are screened per 2 microplates (176 clones) (Wood and DeLuca, 1987). The clones are screened at high temperatures using standard screening conditions.
Screening method: In the qualitative visual screen, colonies were selected only for their ability to sustain relatively bright luminescence. The thermal stability of the luciferase within the colonies of E. coli was progressively challenged in successive rounds of evolution by increasing the temperature of the screen. The selected colonies were inoculated into wells of 96-well plates each containing 200 μl of growth medium.
JM109 clones (from a transformation reaction) are plated onto nitrocellulose filters placed on LB amp plates at a screening density of about 500 colonies per plate.
The nitrocellulose filter is lifted on one side and 500 μl of 10 mM IPTG is added to each of the plates. The filter is then placed back onto the plate to allow diffusion of the IPTG into the colonies containing the different mutant luciferase genes. The plates are then incubated for about 4 hours at room temperature.
One (1) ml of a solution contains 1 mM luciferin and 100 mM sodium citrate is pipetted onto a slide warmer that is set at 50° C. […]

[4] = Michaelis-Menten constant for luciferin of purified mutants; type: biochemical; settings: purified enzyme
From the text: as §1, §2

[5] = Retention of luminescence activity at pH 4.5 and 48° C.; type: physicochemical; settings: for thermostability relative to Luc90-1B5: pH 4.5 and 48° C.; for half-life: pH 4.5 and 48° C. (FIG. 54B)
Description: Three populations of random mutants were produced using clone Luc90-1B5 as a template. These three populations were screened on the robot as experiments 114, 115, and 117. […] These screening conditions were biased to select clones that have increased retention of luminescence activity over time at pH 4.5 at 48° C. and increased luminescence activity when assayed at pH 7.1 with 10 μM ATP. Seventeen clones from experiment 114, seven clones from experiment 115, and ten clones from experiment 116 were shuffled together using sPCR and selected mutants from this screen were run on the robot as experiment 117. Eighteen clones were selected from experiment 117.

[6] = Assay to detect resistance to luciferase inhibitor (luciferin breakdown products); type: biochemical; settings: luciferin degradation products (FIG. 61)
Description: A 10 mM stock solution of luciferin is incubated at 50° C. in 50 mM HEPES, pH 7.8, to accelerate the production of luciferin breakdown products. At different time points an aliquot is removed and then placed at −20° C. After incubation is complete, assay reagent (100 μM Luciferin, 1 μM ATP, 50 mM HEPES, pH 7.8 and 8 mM MgSO4) is prepared with luciferin from each of the different time points and a diluted lysate is then assayed with each assay reagent.
The lysate is prepared as follows. Overnight cultures of clones to be tested are prepared in LB supplemented with 100 μg/ml AMP. The cultures are diluted 1:10 in M-9 minimal media supplemented with 1 mM IPTG, 100 μg/ml AMP and grown for 3 hours at 30° C. Forty-five μl of cells is mixed with 20 μl of Buffer A and frozen. The mixture is thawed, 175 μl of Buffer B added, and the resulting mixture diluted 1:10 in Buffer C. A regression of luminescence versus time of luciferin incubation is then calculated, and from this graph half-life is extrapolated. A longer half-life means that the mutant being tested is more resistant to luciferin breakdown products.

[7] = Robotic thermostability screen of LucPpl mutants: decrease of activity over 10 hours at screening temperature; type: physicochemical
Description: “Enzyme stability” was determined by the rate of activity loss from cell lysates over 10 hours. In successive rounds of evolution the incubation temperature of the lysates was increased.
To prepare luciferases having certain performance, a method for in vitro evolution of enzyme function, as described above, was employed. Briefly described, the method is a recursive process of generating random mutations and screening for desirable properties. It was originally developed primarily to increase the thermostability of luciferases, although other enzymological characteristics are also subject to optimization by the screening criteria. A slightly different strategy was used to achieve the properties described above since two related luciferases needed to be optimized concomitantly.
The luciferases from P. plagiophthalamus have 13 cysteines, which are potentially sensitive to oxidation. This is in contrast to the commonly used firefly luciferase, which has only 4 cysteines. To remove any cysteines that may limit enzyme stability, oligonucleotide-directed mutagenesis was used to randomize the cysteine codons. Three sets of oligonucleotides were used: non-conserved cysteines in regions of low sequence homology (positions 69, 114, 160, 194, 335, and 460), non-conserved cysteines in regions of higher sequence homology (positions 127, 213, 310, and 311), and highly conserved cysteines (positions 60, 80, and 388). […]
The random mutagenesis process was repeated using the best clone from the previous cycle of mutagenesis (Luc53-0G01). […] The discrepancy in measured activity of Luc53-0G01 in this cycle of mutagenesis compared to the previous cycle may be due to changes in the assay procedure and recalibration of the incubator temperature. It should be noted that the recorded thermostabilities from each stage of mutagenesis are calculated from robotic data using abbreviated assay procedures. The data are intended to indicate the relative stabilities of enzyme mutants when assayed in the same screen, rather than providing an accurate quantitation of thermostability.

B1: LucPpe2[T249M]: LucPpe2 firefly luciferase (Photuris pennsylvanica) with mutation Thr to Met at residue 249, SEQ ID NO:25 (protein)
chain: MEDKNILYGPEPFYPLADGTAGEQMFYALSRYADISGCIALTNAHTKENVLYEEFLKLSCRLAESFKKYGLKQNDTIAVCSENGLQFFLPLIASLYLGIIAAPVSDKYIERELIHSLGIVKPRIIFCSKNTFQKVLNVKSKLKYVETIIILDLNEDLGGYQCLNNFISQNSDINLDVKKFKPNSFNRDDQVALVMFSSGTTGVSKGVMLTHKNIVARFSHCKDPTFGNAINPTTAILTVIPFHHGFGMMTTLGYFTCGFRVALMHTFEEKLFLQSLQDYKVESTLLVPTLMAFFAKSALVEKYDLSHLKEIASGGAPLSKEIGEMVKKRFKLNFVRQGYGLTETTSAVLITPDTDVRPGSTGKIVPFHAVKVVDPTTGKILGPNETGELYFKGDMIMKGYYNNEEATKAIINKDGWLRSGDIAYYDNDGHFYIVDRLKSLIKYKGYQVAPAEIEGILLQHPYIVDAGVTGIPDEAAGELPAAGVVVQTGKYLNEQIVQNFVSSQVSTAKWLRGGVKFLDEIPKGSTGKIDRKVLRQMFEKHKSKL
modifications: Mutant luciferase
Km [1]: 18 µM
Thermostability Of Luciferase Activity (Half-Life In Hours) ([2]; 37° C.): 35.4 min
Thermostability Of Luciferase Activity (Half-Life In Hours) ([2]; 50° C.): 0.6 min
Thermostability Of Luciferase Activity (Half-Life In Hours) ([2]; Room Temperature (about 25° C.)): 6600 min
light produced in vivo when expressed in E. coli, relative to LucPpe2 [3]: approximately 5 fold
Km [4]: 0.32 µM

B2: Luc133-1B2: mutant luciferase, SEQ ID NO:44 (protein)
chain: MADKNILYGPEPFYPLEDGTAGEQMFDALSRYADIPGCIALTNAHTKENVLYEEFLKLSCRLAESFKKYGLKQNDTIAVCSENSLQFFLPVIASLYLGIIVAPVNDKYIERELIHSLGIVKPRIVFCSKNTFQKVLNVKSKLKSIETIIILDLNDDLGGYQCLNNFISQNSDSNLDVKKFKPYSFNRDDQVALIMFSSGTTGLPKGVMLTHKNIVARFSIAKDPTFGNAINPTSAILTVIPFHHGFGMMTTLGYFTCGFRVVLMHTFEEKLFLQSLQDYKVESTLLVPTLMAFLAKSALVEKYDLSHLKEIASGGAPLSKEIGEMVKKRFKLNFVRQGYGLTETTSAVLITPKGDAKPGSTGKIVPFHAVKVVDPTTGKILGPNEPGELYFKGPMIMKGYYNNEEATKAIIDNDGWLRSGDIAYYDNDGHFYIVDRLKSLIKYKGYQVAPAEIEGILLQHPYIVDAGVTGIPDEAAGELPAAGVVVQTGKYLNEQIVQDYVASQVSTAKWLRGGVIFLDEIPKGSTGKIDRKVLRQMLEKHTNG
modifications: Mutant luciferase
thermostability relative to Luc90-1B5 [5]: increased thermostability
half-life [5]: about 20 minutes
resistance to inhibitor relative to Luc90-1B5 [6]: increased resistance to inhibitor

B3: Luc146-1H2: mutant luciferase, SEQ ID NO:45 (protein)
chain: MADKNILYGPEPFYPLEDGTAGEQMFDALSRYAAIPGCIALTNAHTKENVLYEEFLKLSCRLAESFKKYGLKQNDTIAVCSENSLQFFLPVIASLYLGIIVAPVNDKYIERELIHSLGIVKPRIVFCSKNTFQKVLNVKSKLKSIETIIILDLNEDLGGYQCLNNFISQNSDSNLDVKKFKPYSFNRDDQVASIMFSSGTTGLPKGVMLTHKNIVARFSIAKDPTFGNAINPTSAILTVIPFHHGFGMMTTLGYFTCGFRVVLMHTFEEKLFLQSLQDYKVESTLLVPTLMAFLAKSALVEKYDLSHLKEIASGGAPLSKEIGEMVKKRFKLNFVRQGYGLTETTSAVLITPKGDAKPGSTGKIVPLHAVKVVDPTTGKILGPNEPGELYFKGPMIMKGYYNNEEATKAIIDNDGWLRSGDIAYYDNDGHFYIVDRLKSLIKYKGYQVAPAEIEGILLQHPYIVDAGVTGIPDEAAGELPAAGVVVQTGKYLNEQIVQDYVASQVSTAKWLRGGVKFLDEIPKGSTGKIDRKVLRQMLEKHTNG
modifications: Mutant luciferase
thermostability relative to Luc90-1B5 [5]: increased thermostability
half-life [5]: about 62 minutes
resistance to inhibitor relative to Luc90-1B5 [6]: increased resistance to inhibitor

B4: Luc30-4B02: LucPplYG mutant, first cycle of random mutagenesis (protein)
chain: MMKREKNVIYGPEPLHPLEDLTAGEMLFRALRKHSHLPQALVDVVGDESLSYKEFFEATVLLAQSLHNCGYKMNDVVSICAENNTRFFIPVIAAWYIGMIVAPVNESYIPDELCKVMGISKPQIVFTTKNILNKVLEVQSRTNFIKRIIVLDTVENIHGCESLPNFISRYSDGNIANFKPLHFDPVEQVAAILCSSGTTGLPKGVMQTHQNICVRLIHALDPRAGTQLIPGVTVLVYLPFFHAFGFSITLGYFMVGLRVIMSRRFDPEAFLKAIQDYEVRSVINVPSVILFLSKSPLVDKYDLSSLRELCCGAAPLAKEVAEVAAKRLNLPGIRCGFGLTESTSANIHSLRDEFKPGSLGRVTPLMAAKIADRETGKALGPNQVGELCIKGPMVSKGYVNNVEATKEAIDDDGWLHSGDFGYYDEDEHFYVVDRYKELIKYKGSQVAPAELEEILLKNPCIRDVAVVGIPDLEAGELPSAFVVKQPGKEITAKEVYDYLAERVSHTKYLRGGVRFVDSIPRNVTGKITRKELLKQLLEKAGG
modifications: Mutant luciferase
notes: LucPplYG mutant, first cycle of random mutagenesis
decrease of activity over 10 hours ([7]; 41° C.): 63 fold
decrease of activity ([7]; 42° C.): greater than 2000 fold
